B1: SB141: CD73-specific alpaca VHH clone, family 2 in Tables 2-3, SEQ ID NO:72; tested as rabbit or human IgG hcAb (antibody)
heavy: QVQLVESGGGLVQPGGSLRLSCAASGFTFINYHMSWLRQAPGKGLEWVSEIHSRGDITSYTNSVKGRFTISRDNAKNTLYLQMNSLKFDDTAVYYCARSRDLFNEGEYDYWGRGTQVTVSS
modifications: left off: a dimerising Fc or GST
notes: tested as rabbit or human IgG hcAb
B2: SB121: CD73-specific alpaca VHH clone, family 5, SEQ ID NO:82; tested as rabbit or human IgG hcAb (antibody)
heavy: QVQLQESGGGLVQAGGSLRLSCAASGSIGSIIAMGWYRQGPGKQRELVARMFTDDGSTNYDDSVKGRFTISRDSAGTTVYLQMNSLKPEDTAVYYCNAQRRWNAYWGPGTQVTVSS
modifications: left off: a dimerising Fc or GST
notes: as for B1
B3: SB116: CD73-specific alpaca VHH clone, family 3, SEQ ID NO:81; tested as rabbit or human IgG hcAb (antibody)
heavy: QVKLQESGGGRVQTGGSLRLSCAASGISFSITTMYWYRQAPGEQRQLVALITDRGNTYYVDSVKGRFTISRDDSKNTVYLQMNDLKPEDTAVYFCNSIPGNDWGQGTQVTVSS
modifications: left off: a dimerising Fc or GST
notes: as for B1
B4: SB143: CD73-specific alpaca VHH clone, family 4 in Tables 1-3, SEQ ID NO:69; tested as rabbit or human IgG hcAb (antibody)
heavy: QVQLVESGGGLVQAGGSLRLSCAASGRTFSRSTMGWFRQAPGKERVFVAAIRWIGGTTTYGDSVKGRFTISVDNAKNTLYLQMNSLKPEDTAVYYCAATAGGPYYLGGRDILYDYWGQGTQVTVSS
modifications: left off: a dimerising Fc or GST
notes: as for B1
B5: SB142: CD73-specific alpaca VHH clone, family 2 in Tables 1-2, SEQ ID NO:73; tested as rabbit IgG hcAb (antibody)
heavy: B1 heavy with N104G
modifications: left off: a dimerising Fc or GST
notes: tested as rabbit IgG hcAb
B6: SB144: CD73-specific alpaca VHH clone, family 4 in Tables 1-2, SEQ ID NO:70; tested as rabbit IgG hcAb (antibody)
heavy: B4 heavy with R31G, V46A, T58A, T59K, V72I, Y104D, L112V
modifications: left off: a dimerising Fc or GST
notes: tested as rabbit IgG hcAb

Experimental findings from patent US20240417484A1, “ANTIGEN-BINDING POLYPEPTIDES AGAINST CD73” (UNIVERSITÄTSKLINIKUM HAMBURG-EPPENDORF, priority 2021, published 2024) are described below.

Where a chain is given by its changes, count along the chain named.

The target in one assay is T1, human CD73-transfected HEK cells (Homo sapiens, UniProt P21589).
T1 construct: expressed in transfected cells; stably transfected in method 5.1)
T1 sequence (P21589 27-549): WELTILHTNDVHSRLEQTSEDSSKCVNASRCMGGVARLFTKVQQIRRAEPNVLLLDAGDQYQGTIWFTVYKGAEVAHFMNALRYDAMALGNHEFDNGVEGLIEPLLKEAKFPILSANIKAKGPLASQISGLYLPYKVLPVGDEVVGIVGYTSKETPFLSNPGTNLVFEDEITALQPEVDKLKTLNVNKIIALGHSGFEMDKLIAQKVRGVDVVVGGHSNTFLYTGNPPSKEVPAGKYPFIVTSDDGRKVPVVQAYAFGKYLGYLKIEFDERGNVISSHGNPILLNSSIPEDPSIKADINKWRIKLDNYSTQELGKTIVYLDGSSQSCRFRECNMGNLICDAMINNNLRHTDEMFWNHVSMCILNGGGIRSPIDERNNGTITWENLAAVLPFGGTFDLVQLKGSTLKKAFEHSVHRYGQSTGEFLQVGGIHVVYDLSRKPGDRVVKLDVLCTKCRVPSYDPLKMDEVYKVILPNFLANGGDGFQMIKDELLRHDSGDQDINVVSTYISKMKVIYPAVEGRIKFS
Description: Epitope binning by flow cytometry (human IgG hcAb blocks rabbit IgG hcAb). It is filed as binding. The settings on record: epitope assignment on human CD73 from binning. How it is done:
(§1) • 5.1 Untransfected HEK293 cells and HEK293 cells stably transfected with human or mouse CD73 were incubated for 30 min with HEK-6E cell supernatants containing rabbit IgG hcAbs (diluted 1:10 in PBS/0.1% BSA). Following washing with PBS/0.1% BSA, bound antibodies were detected with PE-conjugated goat anti-rabbit IgG polyclonal antibody (711-116-152 Dianova, Hamburg). • 5.2 For dissociation analyses, two separate aliquots of CD73-transfected cells were incubated either with Cell Proliferation Dye eFluor 450 (eBioscience) or with hcAbs for 20 min at RT. Cells were washed four times, mixed at a 1:1 ratio and further incubated at RT for 120 min before staining of bound antibodies with PE-conjugated goat anti-rabbit IgG polyclonal antibody. The dissociation of hcAbs from the target cells and association with the eFluor 450 labeled cells was analyzed by flow cytometry using the FlowJo software (Treestar). • 5.3 For epitope analyses, cells were preincubated with excess human IgG hcAbs (10 μl HEK-6E cell supernatant/100 μl PBS/0.1% BSA) for 30 min at RT before addition of Nb-rabbit IgG hcAbs (1 μl HEK-6E cell supernatant/100 μl PBS/0.1% BSA) and further incubation for 20 min at RT and staining with PE-conjugated anti-rabbit polyclonal antibody (711-116-152 Dianova, Hamburg). Cells were washed and analyzed by flow cytometry on a BD-FACS Canto. Data were analyzed using the FlowJo software (Treestar).
To evaluate the epitopes on the CD73 protein recognized by different VHHs, representative rabbit IgG hcAbs were binned against a set of human IgG hcAbs, and bound hcAbs were detected with a PE-conjugated anti-rabbit IgG secondary antibody. Cells were pre-incubated with excess human IgG hcAbs for […] at RT to block specific epitopes before addition of rabbit IgG hcAbs as detectors and further incubation for 15 min at RT. Cells were washed, and bound antibodies were detected with PE-conjugated anti-rabbit IgG polyclonal antibody. Cells were washed and analyzed by flow cytometry on a BD-FACS Canto. Data were analyzed using the FlowJo software (Treestar). Lack of blockade by a non-binding control human IgG hcAb served as negative control (unblocked), and blockade of binding with the same VHH carrying human IgG hcAb as the rabbit IgG hcAb used for detection served as positive controls for blocking. Values for blocking were determined by comparing the mean fluorescence intensities (MFIs) of PE staining of transfected cells for unblocked vs blocked rabbit hcAbs using the formula: inhibition (%)=100−(MFI (blocked)/MFI MFI(unblocked)*100). The values were rounded to whole percentages.
On the technique in general: A flow cytometer gives signals particle by particle.
In turn, B1 gave an Epitope of 2.

As to B2, the Epitope was 4.

B3 showed an Epitope of 1.

As to B4, the Epitope was determined as 1.

The target of the next assay is T2, soluble human CD73 (Homo sapiens, UniProt P21589).
T2 construct: The ectodomain of CD73 (aa 27-549) was expressed as a recombinant protein with a C-terminal His6× tag; His6 (C); made in house; host or cells: transiently transfected HEK cells
T2 sequence (P21589 27-549): T1 sequence (P21589 27-549)
In words: Off-rates of soluble CD73 from immobilized Nb-rbIgG hcAb on Octet BLI. It is filed as binding. Conditions: soluble human CD73 ectodomain 200 ng/μl as analyte; Nb-rbIgG hcAb immobilized on protein A biosensor. How it is done: The binding off-rate constants of bivalent hcAbs to human and mouse CD73 protein were determined by […] kinetic analysis on Octet RED96 (ForteBio). Immobilization of rabbit IgG hcAbs on the protein A-biosensor surface was done in HEK-6E cell supernatant, and regeneration of analytes was done with 100 mM Glycin pH=2.5. Recombinant mouse or human CD73 ectodomain was used as analytes and tested at a saturating dose of 200 ng/μl. Sensorgrams were fitted using least square regression in association than dissociation Model in Prism8 (Graphpad).
In general terms: BLI is a label-free optical method that tracks binding on a fibre tip over time.
B5 came in with a Kdis of 0.00036 s⁻¹.

In turn, B1 displayed a Kdis of 0.00045 s⁻¹.

In turn, B2 showed a Kdis of 0.022 s⁻¹.

B3 yielded a Kdis of 0.00017 s⁻¹.

For B4, the Kdis was determined as 0.0013 s⁻¹.

Molecule B6 returned a Kdis of 0.00023 s⁻¹.

The target in a further assay is T3, native CD73 on the cell surface of peripheral blood leukocytes (PBMCs) (Homo sapiens, UniProt P21589).
T3 construct: endogenous in cells; host or cells: human PBMCs (B and T lymphocytes)
T3 sequence (P21589 27-549): T1 sequence (P21589 27-549)
Description: Flow cytometry binding of hcAbs to native CD73 on blood leukocytes. The settings on record: lymphocyte gate, co-stained for CD3 and CD19.
Description: Purified hcAbs were analysed for binding to native CD73 on the cell surface of peripheral blood leukocytes (PBMCs) by flow cytometry. To this end purified human PBMCs were incubated for 30 min at RT with 10 μl of rabbit hcAb-containing HEK-6E cell supernatants and bound antibodies were detected with a FITC conjugated anti rabbit IgG secondary antibody. To distinguish between B lymphocytes most of which express high levels of cell surface CD73, and T lymphocytes a subset of which express moderate levels of cell surface CD73, cells were co-stained with PE-conjugated mouse anti-human CD3 mAb (UCHT1) and a PerCP/Cy5.5-conjugated mouse anti-human CD19 mAb (HIB19). After washing the cells, cells were analyzed by flow cytometry. A hcAb binding only to murine CD39 (SB30) was used as a negative control. […] Gating was performed on lymphocytes on the basis of forward and side scattered light.
With B5, the “staining of native CD73 on human PBMCs” value is “on most B cells and on a subset of T cells”.

A further assay has as its target T4, human CD73 (Homo sapiens, UniProt P21589).
T4 construct: expressed in transfected cells; stably transfected in method 5.1)
T4 sequence (P21589 27-549): T1 sequence (P21589 27-549)
Description: Flow cytometry binding of rabbit IgG hcAbs to human CD73-transfected HEK cells. More on the design: key: binding to human (h) and mouse (m) CD73; binding to human (h) and mouse (m) CD73. The settings on record: family representative clone; h = binds human CD73, m = binds mouse CD73. How it is done:
HEK cells were co-transfected with expression vectors for green fluorescent protein (GFP) and human CD73, mouse CD73, and a control cell surface protein (CD39). 48 h after transfection, cells were incubated with HEK cell supernatants containing the indicated rabbit IgG hcAbs. Bound antibodies were detected with PE-conjugated anti rabbit IgG secondary antibody.
as §1
The binding specificities of the purified hcAbs were determined by flow cytometry using HEK cells transiently co-transfected with expression vectors for GFP and either mouse CD73, human CD73 or a control protein (CD39). 1×10^6 cells were incubated with 10 μl of the Nb-rbIgG hcAb containing HEK-6E cell supernatants for 30 min at 4° C. After washing, the cells were incubated with PE-conjugated anti-rabbit IgG polyclonal antibody (711-116-152 Dianova, Hamburg) and washed twice. The cells were resuspended in PBS and analyzed by flow cytometry on FACS Canto or FACS Celesta (BD Biosciences, Heidelberg). Data evaluation was conducted using the software FlowJo (Treestar, Stanford, US).
As to B5, the specificity entry is reported as “h”.

Take B2: the specificity result was “h + m”.

On to B3, for which the specificity entry was “h + m”.

As to B6, the specificity entry is given as “h + m”.

In the next assay the target is T2, soluble human CD73. In words: AMP hydrolysis by soluble CD73, DPEA-Napht-Azide fluorescence assay. It is filed as biochemical. The settings on record: 50 ng CD73, 30 min pre-incubation with 10 μl hcAb supernatant, 1 mM AMP. How it is done:
Recombinant human CD73 (50 ng) was pre-incubated for 30 min with hcAbs at RT in 96 well plates before addition of AMP and DPEA-Napht-Azide. Fluorescence signals were detected every 50 seconds for 30 repeats. ARFU values (>10^3/min) were calculated for a 10 min interval during the linear phase (from 5 min to 15 min) using Prism software (Graphpad). A non-specific rabbit IgG hcAb was used as control.
• 4.1 CD73 catalyzes the hydrolysis of AMP to adenosine. This reaction can be monitored by the shift in fluorescence intensity of DPEA-Napht-Azide. This property was used to determine whether hcAbs could interfere with the enzymatic activity of CD73. Soluble recombinant human CD73 (50 ng) was pre-incubated for 30 min with Nbs or hcAbs (10 μl HEK-6E cell supernatant containing 10-100 μg/ml hcAb) at RT in 96 well plates before addition of AMP (Sigma) to a final concentration of 1 mM and of DPEA-Napht-Azide to a final concentration of 50 μM. • 4.2 Fluorescence signals were recorded in white Nunc MicroWell plates (Nunc, 136101) on a Victor III plate reader (Perkin Elmer) (Exicitation filter: F485, Emission Filter: F535; CW-Lamp energy: 40000, counting time: 0.1 s). Data analyses were performed using Prism (Graphpad).
Soluble recombinant human CD73 (50 ng) was pre-incubated for 30 min with CD73-specific hcAbs or an irrelevant control hcAb (10 μl HEK-6E cell supernatant) at RT in 96 well plates before addition of AMP (Sigma) to a final concentration of 1 mM and of DPEA-Napht-Azide to a final concentration of 50 μM. Fluorescence signals were detected every 50 seconds for 30 repeats. Data analyses were performed using Prism (Graphpad).
With B1, the “effect on hydrolysis of AMP by soluble CD73” value (from here on “effect on hydrolysis of AMP”) was “did not”.

For the molecule B3, the “effect on hydrolysis of AMP” value is “effectively blocked hydrolysis of AMP”.

In the case of B4, the “effect on hydrolysis of AMP” value is reported as “inhibited CD73 catalyzed hydrolysis of AMP”.

For B6, the “effect on hydrolysis of AMP” value is recorded as “inhibited CD73 catalyzed hydrolysis of AMP”.

Another assay addresses T5, CD73-expressing human AML-OCI3 cells (Homo sapiens, UniProt P21589).
T5 construct: CD73-expressing human AML-OCI3 cells (AML cell line); endogenous in cells; host or cells: OCI-AML3 human AML cell line
T5 sequence (P21589 27-549): T1 sequence (P21589 27-549)
Description: AMP degradation by cell bound CD73, luminometric AMPglow assay. The settings on record: AML-OCI3 cells; 10 μl supernatant of single clone or 5+5 μl of two clones. It is filed as cell-based. How it is done: AMP was added and AMP degradation was measured using the luminometric AMPglow assay. Data analyses were performed using Prism (Graphpad).
Soluble recombinant human CD73 or CD73-expressing human […] cells were incubated with CD73-specific dimeric clones SB116-rbFc, SB188-rbFc, biparatopic SB116-188-Alb trimers or with non-binding L-10e-rbFc clone (control). AMP was added and AMP degradation was measured using the luminometric AMPglow assay. Data analyses were performed using Prism (Graphpad).
In the case of B4, the “inhibition of AMP degradation” value is recorded as “pronounced inhibition of AMP degradation”.

For the molecule B6, the “inhibition of AMP degradation” value was “pronounced inhibition of AMP degradation”.
